According to doi:10.1101/2023.08.25.554718 (2023):
Read-outs that look alike come from different tables or passages of the source.

What was measured:
[1] = molecular target: T1, CX3CR1 nucleosome (human core histones, wild type) (human, UniProt P04908 1-124; O60814 1-124; P68431 1-136; P62805 1-103); assay: with scFv
[2] = molecular target: T1, CX3CR1 nucleosome (human core histones, …)

B1: MBP-DBDC/EBPα (protein)
chain: MHLQPGHPTPPPTPVPSPHAAPALGAAGLPGPGSALKGLAGAHPDLRTGGGGGGSGAGAGKAKKSVDKNSNEYRVRRERNNIAVRKSRDKAKQRNVETQQKVLELTSDNDRLRKRVEQLSRELDTLRGIFRQLPESSLVKAMGNCA
Kd [1]: 1.5 µM
Kd [2]: 1.7 µM
